From article PMC12316266, “Biochemical analysis of human eIF4E-DCP2 interaction: Implications for the relationship between translation initiation and decapping” come the findings set out here.

The target in one data set is Dcp2 E147Q,E148Q (Homo sapiens, UniProt Q8IU60 1-420, E147Q;E148Q). Put plainly: MST; no Mg2+ (implied); MST: 100 mM NaCl, 50 mM Tris-Cl pH 7.9, 1 mM DTT, 100 ug/ml BSA, 37 C (10 mM MgCl2 only when stated), 4 nM RNA; EMSA: same buffer plus 5% glycerol, no Mg2+, 24. Particulars: protein: recombinant; tags: His6-protein G-TEV tag, removed by TEV; label: 3' Cy5; single strand. (In EMSA bound probe runs differently from free probe, usually more slowly.)

The target of data set [1] is T1, eIF4E (Homo sapiens, UniProt P06730 1-217). Kind of data set: EMSA; 10 mM MgOAc; 2.5 uM eIF4E; Cy5 label implied; MST: 100 mM NaCl, 50 mM Tris-Cl pH 7.9, 1 mM DTT, 100 ug/ml BSA, 37 C (10 mM MgCl2 only when stated), 4 nM RNA; EMSA: same buffer plus 5% glycerol, no Mg2+, 24. Particulars: protein: recombinant; tags: His6-protein G-TEV tag, removed by TEV; label: 3' Cy5; single strand.

The target of data set [2] is T2, Dcp2 (Homo sapiens, UniProt Q8IU60 1-420). Put plainly: MST; no Mg2+; Hill coefficient 1.56 ± 0.49; MST: 100 mM NaCl, 50 mM Tris-Cl pH 7.9, 1 mM DTT, 100 ug/ml BSA, 37 C (10 mM MgCl2 only when stated), 4 nM RNA; EMSA: same buffer plus 5% glycerol, no Mg2+, 24. Particulars: protein: recombinant; tags: His6-protein G-TEV tag, removed by TEV; label: 3' Cy5; single strand.

In data set [3] the target is T2, Dcp2. Put plainly: MST; no Mg2+; RNA pre-incubated with 80 nM eIF4E; Hill coefficient 1.99 ± 0.83; MST: 100 mM NaCl, 50 mM Tris-Cl pH 7.9, 1 mM DTT, 100 ug/ml BSA, 37 C (10 mM MgCl2 only when stated), 4 nM RNA; EMSA: same buffer plus 5% glycerol, no Mg2+, 24. Particulars: protein: recombinant; tags: His6-protein G-TEV tag, removed by TEV; label: 3' Cy5; single strand.

In data set [4] the target is T1, eIF4E. Put plainly: EMSA; 10 mM MgOAc; 2.5 uM eIF4E; MST: 100 mM NaCl, 50 mM Tris-Cl pH 7.9, 1 mM DTT, 100 ug/ml BSA, 37 C (10 mM MgCl2 only when stated), 4 nM RNA; EMSA: same buffer plus 5% glycerol, no Mg2+, 24. Particulars: protein: recombinant; tags: His6-protein G-TEV tag, removed by TEV; label: 3' Cy5 (implied); single strand.
Data set [5] concerns the target T1, eIF4E. Kind of data set: EMSA; no Mg2+; 625 nM eIF4E; MST: 100 mM NaCl, 50 mM Tris-Cl pH 7.9, 1 mM DTT, 100 ug/ml BSA, 37 C (10 mM MgCl2 only when stated), 4 nM RNA; EMSA: same buffer plus 5% glycerol, no Mg2+, 24. Particulars: protein: recombinant; tags: His6-protein G-TEV tag, removed by TEV; single strand.
Data set [6] concerns the target T2, Dcp2. Kind of data set: MST; no Mg2+; Hill coefficient 1.22 ± 0.39; MST: 100 mM NaCl, 50 mM Tris-Cl pH 7.9, 1 mM DTT, 100 ug/ml BSA, 37 C (10 mM MgCl2 only when stated), 4 nM RNA; EMSA: same buffer plus 5% glycerol, no Mg2+, 24. Particulars: protein: recombinant; tags: His6-protein G-TEV tag, removed by TEV; label: 3' Cy5; single strand.
The target in data set [7] is T2, Dcp2. Put plainly: MST; no Mg2+; Hill coefficient 1.89 ± 0.78; MST: 100 mM NaCl, 50 mM Tris-Cl pH 7.9, 1 mM DTT, 100 ug/ml BSA, 37 C (10 mM MgCl2 only when stated), 4 nM RNA; EMSA: same buffer plus 5% glycerol, no Mg2+, 24. Particulars: protein: recombinant; tags: His6-protein G-TEV tag, removed by TEV; label: 3' Cy5; single strand.

T1 sequence (P06730 whole entry): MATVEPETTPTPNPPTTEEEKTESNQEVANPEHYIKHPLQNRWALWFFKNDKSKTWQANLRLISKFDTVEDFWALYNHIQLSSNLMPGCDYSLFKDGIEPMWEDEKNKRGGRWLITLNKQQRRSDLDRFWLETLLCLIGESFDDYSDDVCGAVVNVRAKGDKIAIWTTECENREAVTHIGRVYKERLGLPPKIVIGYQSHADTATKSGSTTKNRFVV

With AGGAAAUAAGAGAGAAAAGAAGAGUAAGAAGAAAUAUAAGAGC (ssRNA, 5' m7GpppAm cap (2'-O-methyl on first A)) [m7G-capped 43-mer RNA, 3' Cy5], the results for the binding result with Dcp2 E147Q,E148Q and in the data set with eIF4E [1] were “no binding” and “binds”, respectively. For the same molecule, the “apparent K (half saturation)” value worked out at 157 ± 26 nM in the data set with Dcp2 [2] and 72 ± 20 nM in the data set with Dcp2 [3].

Consider AGGAAAUAAGAGAGAAAAGAAGAGUAAGAAGAAAUAUAAGAGC (ssRNA, 5' ApppAm cap (2'-O-methyl on first A)) [A-capped 43-mer RNA], for which the binding result with eIF4E [4] is reported as “no binding”. For the molecule AGGAAAUAAGAGAGAAAAGAAGAGUAAGAAGAAAUAUAAGAGC (ssRNA, 5' m7GpppAm cap (2'-O-methyl on first A)) [m7G-capped 43-mer RNA, 3' unlabeled], the binding result with eIF4E [5] is “binds”. Turning to AGGAAAUAAGAGAGAAAAGAAGAGUAAGAAGAAAUAUAAGAGC (ssRNA, 5' triphosphate) [5' triphosphate 43-mer RNA], the “apparent K (half saturation)” value in the data set with Dcp2 [6] is 151 ± 29 nM. Moreover, the binding result with eIF4E [1] is on record as “no binding”. On to AGGAAAUAAGAGAGAAAAGAAGAGUAAGAAGAAAUAUAAGAGC (ssRNA, 5' monophosphate) [5' monophosphate 43-mer RNA], for which the “apparent K (half saturation)” value with Dcp2 [7] came to 96 ± 16 nM.
